Experimental data: publication PMC5321526

Target: MVV IN construct spanning the C-terminal domain (CTD), as crystallised (maedi-visna virus (MVV))
Experiment: crystal structure

MVV IN construct spanning the C-terminal domain (CTD), as crystallised (domain or fragment)
stoichiometry N: 2
